The values below are quoted from earlier work in publication PMC3977038.

In the data set the target is FcεRIα (Homo sapiens) (UniProt P12319).
Chain of FcεRIα (Homo sapiens) (P12319 26-257): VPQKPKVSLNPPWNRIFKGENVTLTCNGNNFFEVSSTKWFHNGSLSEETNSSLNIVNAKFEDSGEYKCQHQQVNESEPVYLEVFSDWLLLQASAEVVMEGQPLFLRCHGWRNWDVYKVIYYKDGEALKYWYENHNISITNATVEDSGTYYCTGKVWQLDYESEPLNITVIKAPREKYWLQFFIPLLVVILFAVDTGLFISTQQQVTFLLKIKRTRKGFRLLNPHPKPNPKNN

Chain of IgE-Fc Fc (P01854 105-426): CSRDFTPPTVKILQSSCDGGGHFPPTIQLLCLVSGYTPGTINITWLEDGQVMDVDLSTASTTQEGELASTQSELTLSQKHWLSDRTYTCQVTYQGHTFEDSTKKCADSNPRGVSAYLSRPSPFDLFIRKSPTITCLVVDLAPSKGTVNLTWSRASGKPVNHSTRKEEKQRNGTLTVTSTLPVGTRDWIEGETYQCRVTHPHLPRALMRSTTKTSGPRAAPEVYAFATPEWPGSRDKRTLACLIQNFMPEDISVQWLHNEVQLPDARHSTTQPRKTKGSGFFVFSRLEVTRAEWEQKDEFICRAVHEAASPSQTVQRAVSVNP

Turning to IgE-Fc Fc (from UniProt P01854), the Kd is 100 pM.

In general, Kd refers to the concentration at which binding is half-saturated.
